Assay results taken from patent EP4631974A1.
Like-named read-outs stand apart in the source and are kept apart here.

Columns and labels:
[1] = target: RSV A2 pre-F protein (respiratory syncytial virus (RSV) A2) (UniProt P03420); test: ELISA, plate-coated RSV A2 pre-F, anti-human IgG Fc-HRP detection
[2] = target: RSV A2 pre-F protein (respiratory syncytial virus (RSV) A2) (UniProt P03420); test: BLI (Octet R8), RSV A2 pre-F captured on HIS1K sensor, antibody in solution
[3] = target: RSV A2 pre-F protein (respiratory syncytial virus (RSV) A2) (UniProt P03420); test: as above; remark: listed apart in the source
[4] = target: RSV A2 pre-F protein (respiratory syncytial virus (RSV) A2) (UniProt P03420); test: ELISA, plate-coated RSV A2 pre-F, anti-human IgG Fc-HRP detection (2-fold dilutions from 1 ug/mL)

## MEDI8897 (antibody)
[1]
  EC50: 0.0313 µg/mL
[2]
  Kd: 0.379 nM
[3]
  Kd: 0.122 nM
[4]
  EC50: 0.0146 µg/mL
